Like-named read-outs stand apart in the source and are kept apart here.
T1: FLAG-tagged cynomolgous APRIL (cynomolgus monkey, UniProt A0ACM8R0G4 110-250 (rhesus entry))
T1 construct: FLAG-tagged, expressed with TPA signal peptide; also called cyAPRIL
T1 sequence: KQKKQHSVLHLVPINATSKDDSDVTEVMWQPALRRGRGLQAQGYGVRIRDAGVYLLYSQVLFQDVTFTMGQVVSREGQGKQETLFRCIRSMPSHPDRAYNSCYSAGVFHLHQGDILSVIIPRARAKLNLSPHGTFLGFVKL

B1: Variant BAv8-10-Ig (Fc fusion, human)
chain: AGQCSQNEYFDHLLRACIPCQVRCSSNTPPLTCQRYCNAGVTNSVKGTNAERKSSVECPPSPAPPVAGPSVFLFPPKPKDTLMISRTPEVTCVVVDVSHEDPEVQFNWYVDGVEVHNAKTKPREEQFNSTFRVVSVLTVVHQDWLNGKEYKCKVSNKGLPAPIEKTISKTKGQPREPQVYTLPPSREEMTKNQVSLTCLVKGFYPSDISVEWESNGQPENNYKTTPPMLDSDGSFFLYSKLTVDKSRWQQGNVFSCSVMHEALHNHYTQKSLSLSPGK
notes: domain: Fc; also called Variant 8-10-Ig; BAv8-10-PIg18
B2: FLAG-tagged recombinant human APRIL (ligand)
chain: AVLTQKQKKQHSVLHLVPINATSKDDSDVTEVMWQPALRRGRGLQAQGYGVRIQDAGVYLLYSQVLFQDVTFTMGQVVSREGQGRQETLFRCIRSMPSHPDRAYNSCYSAGVFHLHQGDILSVIIPRARAKLNLSPHGTFLGFVKL
notes: KINEXA ligand; also called huAPRIL

Experiments:
[1] = target: B2; assay: KinExA
FLAG-tagged human BAFF [2] = target: T2, FLAG-tagged human BAFF (human, UniProt Q9Y275 134-285, limits assumed); assay: KinExA
T2 construct: used in BIACORE (Ex. 9) and KINEXA (Ex. 11); also called huBAFF

[3] = target: T1, FLAG-tagged cynomolgous APRIL; assay: BIACORE SPR
Description: (§1) For human BAFF, cynomolgus monkey APRIL, and mouse APRIL measurements, mouse monoclonal antibody (IgG1) anti-FLAG M2 (Sigma Aldrich, Cat. No. F1804) was immobilized on CM3 sensor chips (GE Healthcare, Cat. No. BR-1005-41) according to the manufacturer's protocol. Antibody was diluted to 30 μg/ml in immobilization buffer (10 mM pH 5±0.20; GE Healthcare; GE Healthcare, Catalog No. BR-1003-51). […] Unreacted sites were quenched with 35 μl of 1M ethanolamine-HCl, pH 8.5 (GE Healthcare, GE Healthcare, Cat. No. BR-1000-50). This procedure typically yielded 3,000-4,000 response units (RU) of coupled antibody.
(§2) The fusion polypeptides were diluted in HBS-EP buffer and flowed over ligand-coated sensor chips. The variant BCMA-Ig and surrogate control fusion proteins were injected at three concentrations (1.5 nM, 15 nM, and 150 nM at 30 μl/min for 2 minutes per association phase) in a single binding cycle, followed by a 20 minute incubation with HBS-EP buffer containing no protein at the same flow rate. A similar protocol was followed for Z-TACI-Ig, except that the injections were at 4.5 nM, 45 nM, and 450 nM.
(§3) Using available information from the structures and published literature, several residues in BAv8-10 were targeted for substitution with conserved as well as non-conserved residues and their effect on BAFF and APRIL binding was assessed by BIACORE.

FLAG-tagged human BAFF [4] = target: T2, FLAG-tagged human BAFF; assay: BIACORE SPR
Description: as §1, §2, §3

[5] = target: B2; assay: KinExA; remark: listed apart in the source
FLAG-tagged human BAFF [6] = target: T2, FLAG-tagged human BAFF; assay: KinExA; remark: listed apart in the source
[7] = target: T1, FLAG-tagged cynomolgous APRIL; assay: BIACORE SPR; remark: listed apart in the source
From the text: as §1, with “The standard kinetic assay measures binding kinetics of trimeric ligand (e.g., human BAFF, cynomolgus monkey APRIL, mouse BAFF, or mouse APRIL) coated on sensor chips and dimeric analytes (e.g., variant BCMA-Ig fusion proteins) in the mobile phase. […] For” for “For”
as §2
(§4) The analyses described above were performed on protein preparations of representative variant BCMA ECD-Ig fusion polypeptides, as well as the Z-TACI-Ig and [S40G]huBCMA ECD-Ig control fusion polypeptides, and the data is presented in Table 1.

FLAG-tagged human BAFF [8] = target: T2, FLAG-tagged human BAFF; assay: BIACORE SPR; remark: listed apart in the source
From the text: as §1, with “The standard kinetic assay measures binding kinetics of trimeric ligand (e.g., human BAFF, cynomolgus monkey APRIL, mouse BAFF, or mouse APRIL) coated on sensor chips and dimeric analytes (e.g., variant BCMA-Ig fusion proteins) in the mobile phase. […] For” for “For”
as §2, §4

Variant BAv9-1-Ig [9] = target: T3, Variant BAv9-1-Ig (human, UniProt P01859-1 99-326 = IgG part); assay: KinExA
T3 construct: domain: Fc; also called Variant 9-1-Ig; BAv9-1-pIg18

Variant BAv1-12-Ig = target: T4, Variant BAv1-12-Ig (human, UniProt P01859-1 99-326 = IgG part); assay: KinExA
T4 construct: domain: Fc; also called Variant 1-12-Ig

Variant BAv8-9-Ig = target: T5, Variant BAv8-9-Ig (human, UniProt P01859-1 99-326 = IgG part); assay: KinExA
T5 construct: domain: Fc; also called Variant 8-9-Ig; BAv8-9-PIg18

Variant BAv11-6-Ig = target: T6, Variant BAv11-6-Ig (human, UniProt P01859-1 99-326 = IgG part); assay: KinExA
T6 construct: domain: Fc; also called Variant 11-6-Ig; BAv11-6-PIg18

Variant 9-3-Ig = target: T7, Variant 9-3-Ig (human, UniProt P01859-1 99-326 = IgG part); assay: KinExA
T7 construct: domain: Fc; also called BAv9-3

Variant BAv9-5-Ig = target: T8, Variant BAv9-5-Ig (human, UniProt P01859-1 99-326 = IgG part); assay: KinExA
T8 construct: domain: Fc; also called Variant 9-5-Ig; BAv9-5-PIg18

Variant BAv9-1-Ig [10] = target: T3, Variant BAv9-1-Ig; assay: KinExA; remark: listed apart in the source
Variant BAv3-10-Ig = target: T9, Variant BAv3-10-Ig (human, UniProt P01859-1 99-326 = IgG part); assay: KinExA
T9 construct: domain: Fc; also called Variant 3-10-Ig; BAv3-10-PIg18

Variant BAv8-10-Ig = target: B1; assay: KinExA

| Selectivity for huAPRIL (KD BAFF/KD APRIL) [1] [ratio] | Selectivity for huBAFF (KD APRIL/KD BAFF) (FLAG-tagged human BAFF [2]) [ratio] | fold improvement over control [3] [fold] | fold improvement over control (FLAG-tagged human BAFF [4]) [fold] | fold improvement over control [5] [fold] | fold improvement over control (FLAG-tagged human BAFF [6]) [fold] | fold improvement KD vs control [7] [fold] | fold improvement KD vs control (FLAG-tagged human BAFF [8]) [fold] | Kd (Variant BAv9-1-Ig [9]) [pM] | Kd (Variant BAv1-12-Ig) [pM] | Kd (Variant BAv8-9-Ig) [pM] | Kd (Variant BAv11-6-Ig) [pM] | Kd (Variant 9-3-Ig) [pM] | Kd (Variant BAv9-5-Ig) [pM] | Kd (Variant BAv9-1-Ig [10]) [pM] | Kd (Variant BAv3-10-Ig) [pM] | Kd (Variant BAv8-10-Ig) [pM] | Binder |
| --- | --- | --- | --- | --- | --- | --- | --- | --- | --- | --- | --- | --- | --- | --- | --- | --- | --- |
| 0.3 | 3.33 | 0.75 | 13.1 | 0.05 | 233 | 0.3 | 5.3 |  |  |  |  |  |  |  |  |  | B1 |
|  |  |  |  |  |  |  |  | 0.198 | 0.275 | 0.0224 | 1.63 | 18.9 | 1.64 | 0.198 | 0.337 | 3.23 | B2 |

Source: patent US20250042970A1 (AURINIA PHARMACEUTICALS, published 2025)
